2 molecules from PMC4509788 (Molecular cell, 2010) can be followed below.

For assay [1], the target named is T1, GST-MAGE-G1 (human, UniProt Q96MG7 1-304).
T1 sequence (looked up): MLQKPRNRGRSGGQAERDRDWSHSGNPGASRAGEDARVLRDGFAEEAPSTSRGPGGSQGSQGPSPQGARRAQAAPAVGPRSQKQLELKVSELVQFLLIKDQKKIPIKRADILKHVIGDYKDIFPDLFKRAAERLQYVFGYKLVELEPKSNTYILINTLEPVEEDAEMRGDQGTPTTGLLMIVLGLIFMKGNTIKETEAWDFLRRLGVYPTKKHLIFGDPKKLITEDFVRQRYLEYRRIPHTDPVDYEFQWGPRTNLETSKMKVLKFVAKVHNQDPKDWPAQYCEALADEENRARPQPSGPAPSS
The experiment in a line: pull-down.

In assay [2] the target is T2, MAGE-G1 (full length, coexpressed with NSE1) (human, UniProt Q96MG7 1-304).
T2 sequence (looked up): T1 sequence (looked up)
The experiment in a line: co-purification after coexpression in bacteria.

B1: NSE1 (purified recombinant) (natural protein, UniProt Q8WV22 1-266, looked up)
chain: MQGSTRRMGVMTDVHRRFLQLLMTHGVLEEWDVKRLQTHCYKVHDRNATVDKLEDFINNINSVLESLYIEIKRGVTEDDGRPIYALVNLATTSISKMATDFAENELDLFRKALELIIDSETGFASSTNILNLVDQLKGKKMRKKEAEQVLQKFVQNKWLIEKEGEFTLHGRAILEMEQYIRETYPDAVKICNICHSLLIQGQSCETCGIRMHLPCVAKYFQSNAEPRCPHCNDYWPHEIPKVFDPEKERESGVLKSNKKSLRSRQH
In the case of B1, the binding result in assay [1] is recorded as “binds”.

B2: NSE1 (full length, coexpressed with MAGE-G1) (natural protein, UniProt Q8WV22 1-266, looked up)
chain: B1 chain
Regarding B2, the binding result in assay [2] is recorded as “binds”.
